Measurements taken from US20110300071A1, “TARGETING NPR-C IN ANGIOGENESIS AND ATHEROSCLEROSIS WITH A C-TYPE ATRIAL NATRIURETIC FACTOR (CANF)-COMB NANOCOMPLEX” (Washington University, priority 2010, published 2011).
Positions of bridges follow the written chain, without caps; N, C: chain ends. Residues, ends and D or L forms follow the SMILES beside them. No end group written: not given here. *: point of attachment. DOTA = O=C(O)CN1CCN(CC(=O)O)CCN(CC(=O)*)CCN(CC(=O)O)CC1

Legend:
[1] = tested on: atherosclerotic lesions; test: MRI of Gadofluorine uptake in atherosclerotic-like lesions; type: in vivo, rabbit; conditions: 3T MRI 1 hour after administration
Procedure: The presence of atherosclerotic lesions in the rabbits was confirmed by 3T MRI 1 hour after administration of a non-receptor specific plaque-targeting contrast agent (Gadofluorine M, 0.5 μmol/kg body weight, Schering AG, Germany) (Sirol, M., et al., Circulation 109:2890-2896, 2004; Zheng, J., et al., Invest. Radiol. 43:49-55, 2008; Meding, J., et al., Mol. Imaging 2:120-129, 2007). […] For scanning, the rabbit was placed supine into a plastic bed. Three micropipette tubes filled with 0.5 mL Gadofluorine M served as fiducial markers, and were taped into position on the bed. At the beginning of the PET study, these tubes were drained of the Gadofluorine by syringe, and refilled with 0.5 mL of ^64Cu to serve as the PET fiducials. These helped to “co-localize” the plaque regions between the two image modalities.

[2] = in vivo; conditions: rabbit, iv, total radioactivity
Procedure: In these experiments, the blood clearance studies were performed in normal rabbits (n=4) to evaluate the pharmacokinetics of tracer in vivo. About 20 MBq of ^64Cu-DOTA-C-ANF was injected intravenously into the left ear of rabbit, and blood sample (0.2 mL) was drawn from the contralacteral ear over the period of 1 h (1 min, 3 min, 5 min, 10 min, 20 min, 40 min and 60 min). The activity of the blood samples were counted in gamma counter and presented in percent injected dose per gram (ID %/g).

[3] = in vitro; type: in vitro ADME; conditions: rabbit, serum
Procedure: On the contrary, only free ^64Cu was detected in the control samples (^64Cu-acetate incubated in rabbit serum) by radio-HPLC.

[4] = molecular target: natriuretic peptide clearance receptor (NPR-C), mouse (mouse) (UniProt P70180); test: cell-based or functional assay
[5] = molecular target: natriuretic peptide clearance receptor (NPR-C), rabbit (rabbit) (UniProt G1SZF5); test: cell-based or functional assay
[6] = molecular target: T1, natriuretic peptide clearance receptor (NPR-C), rabbit (rabbit, UniProt G1SZF5 25-536); test: cell-based or functional assay
T1 sequence: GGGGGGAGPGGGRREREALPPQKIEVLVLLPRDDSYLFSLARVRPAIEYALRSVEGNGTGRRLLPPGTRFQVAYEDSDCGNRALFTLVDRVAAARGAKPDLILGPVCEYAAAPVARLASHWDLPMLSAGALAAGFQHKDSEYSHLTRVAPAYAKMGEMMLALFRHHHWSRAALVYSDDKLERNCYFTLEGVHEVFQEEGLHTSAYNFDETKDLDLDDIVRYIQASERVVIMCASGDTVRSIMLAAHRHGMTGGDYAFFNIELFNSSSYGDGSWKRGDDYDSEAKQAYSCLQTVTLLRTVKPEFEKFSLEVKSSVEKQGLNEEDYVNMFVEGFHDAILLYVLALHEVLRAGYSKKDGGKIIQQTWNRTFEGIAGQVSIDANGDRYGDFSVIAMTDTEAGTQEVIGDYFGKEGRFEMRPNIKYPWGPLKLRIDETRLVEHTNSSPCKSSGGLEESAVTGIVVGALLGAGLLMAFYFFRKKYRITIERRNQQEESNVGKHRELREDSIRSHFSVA

[7] = molecular target: T2, natriuretic peptide clearance receptor (NPR-C), mouse (mouse, UniProt P70180 41-536); test: cell-based or functional assay
T2 sequence (looked up): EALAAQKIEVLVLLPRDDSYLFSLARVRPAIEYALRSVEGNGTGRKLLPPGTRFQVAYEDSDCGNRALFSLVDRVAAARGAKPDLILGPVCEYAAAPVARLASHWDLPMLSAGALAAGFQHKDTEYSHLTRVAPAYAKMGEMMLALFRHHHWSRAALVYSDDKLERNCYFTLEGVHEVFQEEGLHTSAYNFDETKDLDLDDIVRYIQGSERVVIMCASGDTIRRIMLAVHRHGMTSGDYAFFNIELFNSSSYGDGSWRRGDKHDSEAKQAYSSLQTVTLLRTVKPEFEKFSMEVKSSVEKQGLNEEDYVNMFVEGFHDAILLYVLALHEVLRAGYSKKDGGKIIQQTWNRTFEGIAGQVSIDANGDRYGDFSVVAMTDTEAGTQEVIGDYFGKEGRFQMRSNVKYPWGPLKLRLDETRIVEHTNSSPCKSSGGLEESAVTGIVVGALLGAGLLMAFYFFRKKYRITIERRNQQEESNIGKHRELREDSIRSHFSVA

[8] = molecular target: T1, natriuretic peptide clearance receptor …; test: cell-based or functional assay; remark: listed apart in the source

CC(C(=O)NCC(=O)NCCCC[C@H](NC(=O)CO[C@H]1O[C@H](CO)[C@@H](O)[C@H](O)[C@@H]1O)C(=O)N1CCN(S(=O)(=O)C(F)(F)C(F)(F)C(F)(F)C(F)(F)C(F)(F)C(F)(F)C(F)(F)C(F)(F)F)CC1)N1CCN(CC(=O)O)CCN(CC(=O)O)CCN(CC(=O)O)CC1 (stereo partly shown) [Gadofluorine M]
uptake in control arteries (MRI) [1]: no Gadofluorine M uptake
MRI signal in injured vessels ([1]; all rabbits, all time points): increased signal

CC[C@H](C)[C@@H]1NC(=O)[C@H](CCCNC(=N)N)NC(=O)[C@H](CC(=O)O)NC(=O)[C@H]([C@@H](C)CC)NC(=O)[C@H](CCCNC(=N)N)NC(=O)CNC(=O)CNC(=O)[C@H](Cc2ccccc2)NC(=O)[C@@H](NC(=O)[C@H](CO)NC(=O)[C@H](CO)NC(=O)[C@H](CCCNC(=N)N)NC(=O)CN2CCN(CC(=O)O)CCN(CC(=O)O)CCN(CC(=O)O)CC2)CSSC[C@@H](C(N)=O)NC(=O)[C@H](C)NC(=O)CNC1=O [^64Cu-DOTA-CANF, metal not drawn] ({DOTA}-RSSCFGGRIDRIGAC-NH2; disulfide 4-15)
tissue uptake at 0.05 h [2]: 0.1 %ID/g
remaining at 1 h [3]: 97.7 ± 3.9%

B1: ^64Cu-DOTA-CANF-Comb nanoprobe (peptide)
peptide: RSSCFGGRIDRIGAC-NH2
modifications: disulfide 4-15; also: acylated with 4-pentynoic anhydride, clicked to azide-PEG methacrylate of PMMA-core/PEG-shell comb copolymer nanoparticle, DOTA in particle core chelates 64Cu
ischemic/nonischemic uptake ratio, 1 h p.i. [4]: 4.35
ischemic/nonischemic uptake ratio, 24 h p.i. [4]: 5.35
tracer uptake in ischemic limb, 1 h p.i. [4]: 6.3 % ID/g
tracer uptake in ischemic limb, 24 h [4]: 8.5 % ID/g
uptake in lesion site with receptor blocking, 1 h [4]: 3.34
uptake in lesion site with receptor blocking, 4 h [4]: 3.34
uptake in lesion site with receptor blocking, 24 h [4]: 3.31
uptake ratio with receptor blocking, 1 h p.i. [4]: 1.93
uptake ratio with receptor blocking, 4 h p.i. [4]: 1.87
uptake ratio with receptor blocking, 24 h p.i. [4]: 1.82

B2: ^64Cu-CANF-Comb (25% CANF-Comb) (peptide)
peptide: RSSCFGGRIDRIGAC-NH2
modifications: disulfide 4-15; not fully specified; also: 64Cu label
Injury SUV, 1 h [5]: 5.31 SUV
Injury SUV, 4 h [5]: 4.76 SUV
Injury SUV, 24 h [5]: 3.74 SUV
Injury/control SUV ratios, 1 h [5]: 4.07
Injury/control SUV ratios, 4 h [5]: 4.07
Injury/control SUV ratios, 24 h [5]: 4.24
Injury/muscle SUV ratios, 1 h [5]: 38.2
Injury/muscle SUV ratios, 4 h [5]: 37.7
Injury/muscle SUV ratios, 24 h [5]: 40.8

B3: ^64Cu labeled DOTA-C-type atrial natriuretic factor (CANF) conjugate (peptide)
peptide: RSSCFGGRIDRIGAC-NH2
modifications: disulfide 4-15; also: DOTA conjugated, site not given here, 64Cu chelated
SUV ratio injured/control arteries, blocking with unlabeled C-ANF [6]: 1.07 ratio
SUV ratio injured/control arteries, pre-blocking [6]: 1.42 ratio
target-to-background ratio injured artery/muscle, blocking [6]: 2.13 ratio
target-to-background ratio injured artery/muscle, pre-blocking [6]: 3.05 ratio
ischemic/nonischemic uptake ratio, after blocking with unlabeled CANF [7]: 1.24 ratio
ischemic/nonischemic uptake ratio, before blocking [7]: 2.34 ratio
Injury/control SUV ratios, 1 h [8]: 1.87 ratio
Injury/muscle SUV ratios, 1 h [8]: 3.39 ratio
